Reference: the DeepSol protein solubility set

Assay: soluble on expression in E. coli; label from the status in PepcDB or PDB records

Row | Sequence | soluble on expression in E. coli
1 | MGSDKIHHHHHHMAYLDNIAVFVRVVELGNLSAAGRDMRISPAVASNRIKELEKHLGVRLFNRTTRQLMPTEHGTVFYSGAKQVLEAITEAEAAVSALSGQPRGTIRVTAPLGLGRRLVASGIPDFHDKYPDIEVRLRLSDHNVDIMKEGIDVAFRLGIIEDSSLRMRGIMECERVLVAAPKYLEARGEPAEPQELIGKKHDCLMLRYSGAREYVWTLQTPTGPQKFEVHGPYDTDDGDVLTGWALSGRGIINKPRFEVEPFIRDRRLQVILANTPPTPVQFAAVYPHKKLQDPKVRLLLDFMAERCQRLIKDILAGK | not soluble
2 | MSLSRVTEIRYVGYGVKDFDAEKAFYADVWGLEPVGEDANNAWFKAQGADEHHVVQLRRADENRIDVIALAADSRSDVDALRASVEAAGCKVASEPAVLATPGGGYGFRFFSPDGLLFEVSSDVAKGAKRDLARWEGVPVKISHIVLHSPNHQDMVKFFTDVLGFKVSDWLGDFMCFLRCNSAHHRIAILPGPPCLNHVAYDMLSVDDMMRGAHRLKVKGIDIGWGPGRHTAGNNTFSYFVTPGGFVTEYTSELEEVDFDTHQYKVHVPAPMVMDQWGIGTGGPQTLPHPHANPGLFQTAEAEGHHHHHH | soluble
3 | MNQKLLKLENLLRFHTICRQVHSPSQRRLLAWCRHGFAPASSVWRDLLGARSWQTDMLIGSALHQHRLLVTKKEKRPPRSQLSPVKTKKEVEVWVGMTVEDLASAMAKDIDCVYEALLNTAIDVDSLEANSHLDEVWIKEVIKKAGMKLKWSKLKQERIRENKDAVRRPGTDPALLKPRSPVVTVMGHVDHGKTTLLDKLRETQVAAMEVGGITQHIGAFLVSLPSGEKITFLDTPGHAAFSAMRARGAQVTDIVVLVVAADDGVMKQTVESIQHAKDAEVPIILAINKCDKTDADPEKVKKELLAYDVVCEEYGGDVQAVHVSALTGDNLMALAEATIALAEILELKADPTGPVEGTVIESFTDKGRGPVTTAIIQRGTLRKGSILVAGKSWAKVRLIFDENGKILNEAYPSMPVGIIGWRDLPSAGDEILEVESEPRAREVIEWRKSEQKEEKGKDDLKIMEEKRREHQEAHRKAREKYGSLHWKERSYIKFLERKQQRPLKPKEKVERQSNVLPIIIKGDVDGSVEAILNLLDTYDASHECELELVHFGLGDISENDVTFAETFDGVIYGFNVEAGSAIQQSAAQKGVKIKLHKIIYHLIEDLQEELSSRLPHTLEEYPIGEASILATFTVTEGKKKIPVADCRVQKGQLERHKKFKLIRNGQVIWKGSLTSLKHHKDDISVIKTGMDCGLSLDEEKVEFKPGDQVICYEENKVPTKTSWDPGF | soluble
4 | MLEELTLERFLSHRSAFSLVIDVRSPHEYLESHLPGALNLPVLSDLEHERVGTLYKESPFEARILGASLICANIASALSWLKDSLHPSQKVLIYCARGGQRSLSLALILSSIGYQIARLIGGYKGYRAHVAASWQVPRKESFLTLVGPTGGGKSELIQSLSWSLDIEGLARHKGSSFGAIEGEQPSTKMFQNLLFERLLGLREEPLVAVEGESKRLGNLILPSPLYERYKSAPKVFIDSPLEARIDRTMQEYASISPAFFEGAMQKIARYMNKEAHKAASLAFWQGDLRRCAELLLVEYYDKVYKMEPCEYTILHTSKESTLKELERIKGEILSSVRE | not soluble
5 | DIVMTQSHKFMSTSVGDRVSITCKASQDVSTAVAWYQQKPGQSPKLLISWASTRHTGVPDRFTGSGSGTDYTLTISSVQAEDLALYYCQQHYTTPLTFGAGTKLELKRADAAPTVSIFPPSSEQLTSGGASVVCFLNNFYPKDINVKWKIDGSERQNGVLNSWTDQDSKDSTYSMSSTLTLTKDEYERHNSYTCEATHKTSTSPIVKSFNRN | soluble
6 | MDVVEVAGSWWAQEREDIIMKYEKGHRAGLPEDKGPKPFRSYNNNVDHLGIVHETELPPLTAREAKQIRREISRKSKWVDMLGDWEKYKSSRKLIDRAYKGMPMNIRGPMWSVLLNTEEMKMKNPGRYQIMKEKGKRSSEHIQRIDRDVSGTLRKHIFFRDRYGTKQRELLHILLAYEEYNPEVGYCRDLSHIAALFLLYLPEEDAFWALVQLLASERHSLQGFHSPNGGTVQGLQDQQEHVVATSQPKTMGHQSASRRRPGVARGHVFATGSLIPGPGMRTLCSSILGPL | not soluble
7 | MNKLHKGWFTEFSPDDLEKMNGASDEEPTKVLKSDGQEMGGAWPGQAFSLQVKKVLFHEKSKYQDVLVFESTTYGNVLVLDGIVQATERDEFSYQEMLAHLPMFAHPDPKRVLIIGGGDGGILREVLKHESVEKVTMCEIDEMVIDVAKKFLPGMSCGFSHPKLDLFCGDGFEFLKNHKNEFDVIITDSSDPVGPAESLFGQSYYELLRDALKEDGILSSQGESVWLHLPLIAHLVAFNRKIFPAVTYAQSIVSTYPSGSMGYLICAKNANRDVTTPARTLTAEQIKALNLRFYNSEVHKAAFVLPQFVKNALE | soluble
